Results published in US7807629 (ALCON RESEARCH, dated 2010).
Square brackets hold non-standard residues; d marks the D form. Ends that are not written are not given here. Hyp = O=C(O)[C@@H]1C[C@@H](O)CN1

T1: human bradykinin B2 receptor (human, UniProt P30411 1-391)
T1 sequence (looked up): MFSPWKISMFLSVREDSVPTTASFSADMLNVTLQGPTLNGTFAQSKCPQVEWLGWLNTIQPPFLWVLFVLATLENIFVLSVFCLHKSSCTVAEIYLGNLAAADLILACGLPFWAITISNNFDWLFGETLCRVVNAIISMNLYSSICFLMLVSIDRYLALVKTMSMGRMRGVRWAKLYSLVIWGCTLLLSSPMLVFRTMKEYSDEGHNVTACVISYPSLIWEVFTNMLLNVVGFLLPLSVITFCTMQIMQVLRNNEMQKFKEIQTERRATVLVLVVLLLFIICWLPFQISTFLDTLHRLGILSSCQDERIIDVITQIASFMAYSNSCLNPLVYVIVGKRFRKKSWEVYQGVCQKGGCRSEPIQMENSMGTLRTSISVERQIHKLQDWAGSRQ

B1: Lys-BK (peptide)
peptide: KRPPGFSPFR
B2: Hyp^3-BK (peptide)
peptide: RP[Hyp]GFSPFR
B3: Met-Lys-BK (peptide)
peptide: MKRPPGFSPFR

Target: T1, human bradykinin B2 receptor
Assay: cell-based or functional assay

Binder | [Ca^2+]i mobilization, Agonist Potency (EC50), h-CM cells | [Ca^2+]i mobilization, Agonist Potency (EC50), h-NPE cells | [Ca^2+]i mobilization, Agonist Potency (EC50), h-TM cells
B1 | 3.2 nM | 19.6 nM | 1.9 nM
B2 |  | 6 nM | 0.9 nM
B3 | 16.1 nM | 125 nM | 6.5 nM
